Measurements taken from the supplement of paper PMC10724198.
± gives the standard deviation of the averaged measurements.

System: Saccharomyces cerevisiae
Test: protein stability index of tFT-peptide fusion (C-terminal peptide) (PSI (0-1 scale)); higher = more stable (slower turnover)
Details: temperature: 30 C
Method: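 MPS profiling in S. cerevisiae of the yeast C-terminome library: the last 12 aa of each annotated ORF are fused to the C-terminus of a sfGFP-mCherry timer, after a GGGS linker. Cells are FACS-sorted into 8 mCherry/sfGFP bins and deep-sequenced. PSI runs from 0 (unstable) to 1 (stable); wild type and das1Δ backgrounds, two technical replicates each.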

[1] = genetic background: das1 deletion

Row | Sequence | protein stability index [1] | protein stability index (genetic background: wild type)
1 | ERKLSTKKVSVE [YHR078W C-terminal 12 aa] | 0.707 ± 0.052 | 0.7 ± 0.032
2 | SLSTFPFVYKYL [EST3 C-terminal 12 aa] | 0.749 ± 0.019 | 0.127 ± 0.0095
3 | EVLHEWKSHINQ [BIO3 C-terminal 12 aa] | 0.743 ± 0.017 | 0.6763 ± 0.0056
4 | KYLNDEQVKLNV [ADE13 C-terminal 12 aa] | 0.72 ± 0.026 | 0.68 ± 0.035
5 | SGGFGGSGSGFI [FUB1 C-terminal 12 aa] | 0.6972 ± 0.0036 | 0.691 ± 0.013
6 | ISEIEQLLSKLK [ATP4 C-terminal 12 aa] | 0.698 ± 0.014 | 0.684 ± 0.045
7 | EGEDEELDIDDI [TIF11 C-terminal 12 aa] | 0.671 ± 0.0097 | 0.6717 ± 0.0065
8 | QGKTFYETVAKF [PST2 C-terminal 12 aa] | 0.77 ± 0.03 | 0.776 ± 0.017
9 | DNGELDLSGFNI [MED2 C-terminal 12 aa] | 0.696 ± 0.013 | 0.734 ± 0.073
10 | EEFNKQLKDIEA [YOR289W C-terminal 12 aa] | 0.69 ± 0.026 | 0.661 ± 0.017
11 | IQEISAAVKKYT [SAM4 C-terminal 12 aa] | 0.704 ± 0.014 | 0.728 ± 0.038
12 | CPTPGCTCQCNK [SEA4 C-terminal 12 aa] | 0.69 ± 0.015 | 0.659 ± 0.0093
13 | IGGNCATRLFKL [SLM6 C-terminal 12 aa] | 0.7481 ± 0.0008 | 0.737 ± 0.024
14 | KQIVFEIPSQTN [RPS7B C-terminal 12 aa] | 0.69872 ± 0.00027 | 0.673 ± 0.0084
15 | NLPFYKNQATLQ [YBR131C-A C-terminal 12 aa] | 0.6902 ± 0.005 | 0.707 ± 0.031
16 | VIGEKGITDSSD [DMC1 C-terminal 12 aa] | 0.733 ± 0.023 | 0.721 ± 0.018
17 | RDLNKLRSFQNF [YFL012W C-terminal 12 aa] | 0.724 ± 0.024 | 0.4914 ± 0.0021
18 | CHAYAKKAKEFL [PAM17 C-terminal 12 aa] | 0.694 ± 0.019 | 0.7 ± 0.047
19 | INQEAYQAFLRR [GUF1 C-terminal 12 aa] | 0.7022 ± 0.0031 | 0.7039 ± 0.0062
20 | KRFTTNRNGNVI [GEF1 C-terminal 12 aa] | 0.732 ± 0.022 | 0.696 ± 0.027
21 | ENLITILDSNYI [ISR1 C-terminal 12 aa] | 0.74 ± 0.0095 | 0.696 ± 0.01

Row | Sequence | protein stability index [1] | protein stability index (genetic background: wild type)
22 | RVPKKNGKLSKK [PDR5 C-terminal 12 aa] | 0.7012 ± 0.0033 | 0.704 ± 0.055
23 | LISRRREDEERN [YPL216W C-terminal 12 aa] | 0.788 ± 0.038 | 0.726 ± 0.037
24 | IYEGFLDHANSF [TFB6 C-terminal 12 aa] | 0.735 ± 0.011 | 0.745 ± 0.012
25 | WTKDLGCWSLYK [HIR1 C-terminal 12 aa] | 0.716 ± 0.025 | 0.6994 ± 0.0037
26 | LIVVLLLLLLVL [SYN8 C-terminal 12 aa] | 0.446 ± 0.0069 | 0.545 ± 0.12
27 | ELWTLQAPELNL [YKL036C C-terminal 12 aa] | 0.72 ± 0.021 | 0.702 ± 0.04
28 | KSCVSSLRVMAM [YNL276C C-terminal 12 aa] | 0.608 ± 0.013 | 0.597 ± 0.023
29 | PLQRNSNVSHHL [MPH2 C-terminal 12 aa] | 0.69243 ± 0.00056 | 0.7038 ± 0.0037
30 | PISSKYTDGKKR [YPL205C C-terminal 12 aa] | 0.686 ± 0.012 | 0.695 ± 0.013
31 | SEFPTCCDQAAI [SLZ1 C-terminal 12 aa] | 0.707 ± 0.01 | 0.721 ± 0.0094
32 | LVYRDGEISELK [PAT1 C-terminal 12 aa] | 0.7114 ± 0.0045 | 0.703 ± 0.13
33 | TALLVSYCHLCV [YMR122C C-terminal 12 aa] | 0.625 ± 0.0077 | 0.6243 ± 0.0048
34 | KHLAKALADLIS [JHD1 C-terminal 12 aa] | 0.717 ± 0.018 | 0.701 ± 0.032
35 | KFSTRMKLAHGK [SLX1 C-terminal 12 aa] | 0.698 ± 0.019 | 0.728 ± 0.021
36 | SCQRILQELEKP [CAK1 C-terminal 12 aa] | 0.689 ± 0.0094 | 0.705 ± 0.055
37 | ELPSYKKTSKQN [PSG1 C-terminal 12 aa] | 0.722 ± 0.03 | 0.701 ± 0.077
38 | AGAAAVANQGKK [GPM1 C-terminal 12 aa] | 0.697 ± 0.016 | 0.715 ± 0.064
39 | VLPTWADKVINE [SPE4 C-terminal 12 aa] | 0.69 ± 0.0095 | 0.677 ± 0.012
40 | KIHTAAIAAFKQ [ATP12 C-terminal 12 aa] | 0.7013 ± 0.0055 | 0.612 ± 0.033
41 | PIALTMFQRWAS [UPA1 C-terminal 12 aa] | 0.688 ± 0.01 | 0.498 ± 0.038
42 | GGPPKVNKDIIS [HAT2 C-terminal 12 aa] | 0.708 ± 0.035 | 0.6995 ± 0.006

Row | Sequence | protein stability index [1] | protein stability index (genetic background: wild type)
43 | LNSYEEEANGST [SHG1 C-terminal 12 aa] | 0.7062 ± 0.0036 | 0.734 ± 0.028
44 | VDKYEAGMSITK [SWC4 C-terminal 12 aa] | 0.688 ± 0.0058 | 0.671 ± 0.03
45 | ATGTKSDRPIWR [SHE1 C-terminal 12 aa] | 0.6627 ± 0.00093 | 0.72 ± 0.034
46 | VFLKKDTDIYIC [YML084W C-terminal 12 aa] | 0.63 ± 0.019 | 0.612 ± 0.03
47 | IYAALPKSKIKL [YMR304C-A C-terminal 12 aa] | 0.698 ± 0.012 | 0.737 ± 0.013
48 | SHLFFQLSCSLY [YLL044W C-terminal 12 aa] | 0.685 ± 0.038 | 0.736 ± 0.069
49 | TKAVHINLSLDN [ALD2 C-terminal 12 aa] | 0.69 ± 0.0043 | 0.702 ± 0.015
50 | EERDRRRAQQGL [RPS4A C-terminal 12 aa] | 0.6948 ± 0.0053 | 0.692 ± 0.05
51 | IFCTLFIHTQIL [PLC1 C-terminal 12 aa] | 0.138 ± 0.011 | 0.143 ± 0.023
52 | KNFQEHLRSING [AGC1 C-terminal 12 aa] | 0.695 ± 0.01 | 0.702 ± 0.032
53 | EEDIFYRNQVVF [YKR075C C-terminal 12 aa] | 0.738 ± 0.0081 | 0.777 ± 0.059
54 | MCSIINIQQWYV [YGL182C C-terminal 12 aa] | 0.6733 ± 0.0013 | 0.627 ± 0.01
55 | LVLLLQIYFFSF [YGR242W C-terminal 12 aa] | 0.277 ± 0.03 | 0.296 ± 0.0078
56 | LRANANMPTPSL [RLF2 C-terminal 12 aa] | 0.7083 ± 0.0022 | 0.665 ± 0.0083
57 | FRGKRYHTIKRQ [MSS51 C-terminal 12 aa] | 0.709 ± 0.0045 | 0.643 ± 0.035
58 | AKTSLYTATVIS [PAC11 C-terminal 12 aa] | 0.636 ± 0.015 | 0.6331 ± 0.006
59 | TSIESALITLDL [MER1 C-terminal 12 aa] | 0.682 ± 0.016 | 0.695 ± 0.032
60 | YSDEASAQKKRF [RPS2 C-terminal 12 aa] | 0.698 ± 0.0098 | 0.709 ± 0.039
61 | RRLKIQLCCISK [YHR180C-B C-terminal 12 aa] | 0.658 ± 0.019 | 0.6544 ± 0.004
